Measured values as given in patent US20230201322A1.
Where two headings read alike, the source gives them in different places.

Key:
[1] = target: HLA-A*0201 molecule expressed on the human tumoral cell T2 (human); assay: T2 cell HLA-A2 FACS (BB7.2-PE), peptide 10 µM
[2] = target: HLA-A*0201 molecule expressed on the human tumoral cell T2 (human); assay: T2 cell HLA-A2 FACS (BB7.2-PE), peptide 10 µM; remark: listed apart in the source
[3] = target: HLA-A*0201 molecule expressed on the human tumoral cell T2 (human); assay: T2 cell HLA-A2 FACS (BB7.2-PE), peptide titration
[4] = target: HLA-A*0201 molecule expressed on the human tumoral cell T2 (human); assay: T2 cell HLA-A2 FACS (BB7.2-PE), peptide 1 µM
[5] = target: HLA-A*0201 molecule expressed on the human tumoral cell T2 (human); assay: T2 cell HLA-A2 FACS (BB7.2-PE), peptide 1 µM; remark: listed apart in the source
[6] = target: HLA-A*0201 molecule expressed on the human tumoral cell T2 (human); assay: T2 cell HLA-A2 FACS (BB7.2-PE), peptide 1 µM; remark: listed apart in the source
[7] = target: HLA-A*0201 molecule expressed on the human tumoral cell T2 (human); assay: T2 cell HLA-A2 FACS (BB7.2-PE), peptide 0.1 µM
[8] = target: HLA-A*0201 molecule expressed on the human tumoral cell T2 (human); assay: T2 cell HLA-A2 FACS (BB7.2-PE), peptide 0.1 µM; remark: listed apart in the source
[9] = target: HLA-A*0201 molecule expressed on the human tumoral cell T2 (human); assay: T2 cell HLA-A2 FACS (BB7.2-PE), peptide titration; remark: listed apart in the source
[10] = target: HLA-A*0201 molecule expressed on the human tumoral cell T2 (human); assay: T2 cell HLA-A2 FACS (BB7.2-PE), peptide 10 µM; remark: listed apart in the source
[11] = target: HLA-A*0201 molecule expressed on the human tumoral cell T2 (human); assay: T2 cell HLA-A2 FACS (BB7.2-PE), peptide 0.1 µM; remark: listed apart in the source
[12] = target: HLA-A*0201 molecule expressed on the human tumoral cell T2 (human); assay: T2 cell HLA-A2 FACS (BB7.2-PE), peptide titration; remark: listed apart in the source

HLA-A2 labelling as % of reference peptide HIV pol 589-597 at 100 µM [1]: 3.8%
HLA-A2 labelling as % of reference peptide HIV pol 589-597 at 100 µM [2]: 8.8%
Conc. inducing 20% of HLA-A2 expression [3]: 30.9 µM
HLA-A2 labelling as % of reference peptide HIV pol 589-597 at 100 µM [4]: -2.54%
HLA-A2 labelling as % of reference peptide HIV pol 589-597 at 100 µM [5]: 4.65%
HLA-A2 labelling as % of reference peptide HIV pol 589-597 at 100 µM [6]: -5.38%
HLA-A2 labelling as % of reference peptide HIV pol 589-597 at 100 µM [7]: 5.62%
HLA-A2 labelling as % of reference peptide HIV pol 589-597 at 100 µM [8]: -9.24%
Conc. inducing 20% of HLA-A2 expression [9]: 36 µM
HLA-A2 labelling as % of reference peptide HIV pol 589-597 at 100 µM [10]: -3.03%
HLA-A2 labelling as % of reference peptide HIV pol 589-597 at 100 µM [11]: 2.58%
Conc. inducing 20% of HLA-A2 expression [12]: 26.5 µM
Substance: reference peptide HIV pol 589-597
